Columns and labels:
[1] = molecular target: His-labeled rat recombinant agrin (R&D Systems) (UniProt P25304)
[2] = system: C212 myotubes; assay: In vitro assessment of AChR clustering in myotubes; type: cell-based; conditions: FIG. 3A, B
Experimental: C212 cells were purchased from ATCC (Manassas, Va.). Cells were expanded and differentiated into myotubes as previously described. Five days following differentiation, myotubes were then treated overnight with […] His-labeled rat recombinant agrin (R&D Systems, Minneapolis, Minn.) or […] rat recombinant agrin incubated with […] MMP3 active subunit (Millipore, Billerica, Mass.) for 72 hours. Western blot was performed to confirm cleavage of agrin. After treatment of myotubes with Alexa 555-conjugated a-bungarotoxin (a-BTX; Invitrogen, Carlsbad, Calif.; 1:1,000), samples were fixed according to standard procedures for immunohistochemistry. Ten random fields at 40 magnification were evaluated by a blinded observer for AChR clustering under fluorescent microscopy as previously described. An AChR cluster was defined as an aggregate of at least 4 lm2. Three samples from each treatment group were analyzed.
Agrin was cleaved by MMP3, resulting in a 60 kDa fragment as detected by silver stain.

Sequence of UniProt P25304 (P25304 1153-1959): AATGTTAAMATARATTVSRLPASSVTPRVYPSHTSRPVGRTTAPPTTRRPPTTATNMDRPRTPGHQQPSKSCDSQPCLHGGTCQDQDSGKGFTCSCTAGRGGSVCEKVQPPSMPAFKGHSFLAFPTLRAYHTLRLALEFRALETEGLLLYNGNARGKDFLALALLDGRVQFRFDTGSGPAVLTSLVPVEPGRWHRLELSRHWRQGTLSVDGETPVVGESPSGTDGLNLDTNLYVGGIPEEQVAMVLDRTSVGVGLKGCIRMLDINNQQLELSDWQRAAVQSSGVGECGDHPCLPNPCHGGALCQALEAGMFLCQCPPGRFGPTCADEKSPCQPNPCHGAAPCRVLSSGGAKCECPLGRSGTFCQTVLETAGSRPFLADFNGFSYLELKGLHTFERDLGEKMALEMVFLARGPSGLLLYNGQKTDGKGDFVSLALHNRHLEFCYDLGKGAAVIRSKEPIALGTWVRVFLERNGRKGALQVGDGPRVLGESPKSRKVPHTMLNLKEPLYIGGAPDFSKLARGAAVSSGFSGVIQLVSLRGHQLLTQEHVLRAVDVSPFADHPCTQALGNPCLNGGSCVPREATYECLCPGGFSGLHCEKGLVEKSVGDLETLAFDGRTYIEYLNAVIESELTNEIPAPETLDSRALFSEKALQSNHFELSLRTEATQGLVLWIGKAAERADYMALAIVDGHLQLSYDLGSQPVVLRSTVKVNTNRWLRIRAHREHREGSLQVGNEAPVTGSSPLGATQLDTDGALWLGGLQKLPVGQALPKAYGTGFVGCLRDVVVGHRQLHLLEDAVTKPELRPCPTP

Substance	AChR clusters/field in C212 myotubes (agrin processed by MMP3, against 7.30 for agrin alone) [1]	cleavage of agrin (silver stain) [1]	degradation of 90 kDa agrin after 72 hours [1]	AChR clustering (images) [2]
MMP3 active subunit (Millipore)	7.30 6 0.578 clusters/field vs 2.20 6 0.467 clusters/field	Agrin was cleaved by MMP3, resulting in a 60 kDa fragment as detected by silver stain	Treatment with MMP3 for 72 hours led to complete degradation of 90 kDa agrin	–
agrin: His-labeled rat recombinant agrin (R&D Systems), approximately 90 kDa	–	–	–	clustering

Reference: patent publication US20140170162A1, “PRESERVATION OF THE NEUROMUSCULAR JUNCTION (NMJ) AFTER TRAUMATIC NERVE INJURY” (The Regents of the University of California, priority 2012, published 2014)
